# According to patent US7329410:
# Target: Mouse MHC Class I (mouse B6 class I antigens; D^b or K^b molecules on the surface of RMA-S cells) (mouse)
# Assay: RMA-S cells incubated with peptide 25 ug/ml, stained with FITC anti-D^b or anti-K^b, flow cytometry; increase in MFI over medium alone
row,Binding Affinity to Mouse MHC Class I (percent increase of D^b or K^b on RMA-S cells),Binder
1,1.2%,QMTSQLECM [WT1 peptide p228-236 …]
2,1.2%,GCNKRYFKL [WT1 peptide p329-337 …]
3,52%,SCLESQPAI [WT1 peptide human p136-144 …]

# Second part, the binder before the results:
row,Binder,Binding Affinity to Mouse MHC Class I (percent increase of D^b or K^b on RMA-S cells)
1,NLYQMTSQL [WT1 peptide p225-233 …],5.8%
2,YSSDNLYQM [WT1 peptide p221-229 …],0.8%
3,ALLPAVPSL [WT1 peptide human p10-18 …],2.2%
4,CMTWNQMNL [WT1 peptide p235-243 …],33.6%
5,NQMNLGATL [WT1 peptide p239-247 …],1%

# Target: Mouse MHC Class I (mouse B6 class I antigens; D^b or K^b molecules on the surface of RMA-S cells) (mouse)
# Assay: binding of 9mer peptide to mouse B6 (H-2^b) class I antigens; RMA-S cell assay as for Table XLVII
row,Binding Affinity to Mouse MHC Class I,Binder
1,1%,APYLPSCLE [WT1 peptide P131-139 …]
2,2%,SQASSGQAR [WT1 peptide P118-126 …]
3,79%,NAPYLPSCL [WT1 peptide P130-138 …]
4,2%,MFPNAPYLP [WT1 peptide P127-135 …]
5,1%,FPNAPYLPS [WT1 peptide P128-136 …]
6,1%,SSGQARMFP [WT1 peptide P121-129 …]
7,1%,PNAPYLPSC [WT1 peptide P129-137 …]
8,2%,QASSGQARM [WT1 peptide P119-127 …]

# Second part, the binder before the results:
row,Binder,Binding Affinity to Mouse MHC Class I
1,PSQASSGQA [WT1 peptide P117-125 …],2%
2,QARMFPNAP [WT1 peptide P124-132 …],1%
3,ASSGQARMF [WT1 peptide P120-128 …],1%
4,ARMFPNAPY [WT1 peptide P125-133 …],1%
